Laboratory results as given in PMC6342966.

Target: His6-Z_GFP 11 (GFP 11 genetically fused to the C-terminus of the IgG binding Z domain derived from protein A)
Assay: split reporter (BiFC, NanoBiT); split-GFP fluorescence complementation in solution, 96-well plate, TNG buffer, 225 µM His6-Z_GFP 11 and 0.2 µM GFP 1–10 variant, 25 °C, excitation 488 nm, emission 535 nm, controls without His6-Z_GFP 11 subtracted

rate of increase of the fluorescent signal after adding His6-Z GFP 11 [a.u./second]	rate of increase of the fluorescent signal after adding His6-Z GFP 11, additional hour after the first two minutes [a.u./sec]	rate of increase of the fluorescent signal after adding His6-Z GFP 11, first two minutes [a.u./sec]	Substance
0.5	–	–	GFP 1–10 OPT (non-maturated) (domain or fragment)
–	6	83	GFP 1–10^mat (GFP 1–10 with maturated chromophore) (domain or fragment)
